Patent US20180362645A1

Molecular target: human pituitary adenylate cyclase-activating polypeptide type I receptor (human) (UniProt P41586)
Experiment: cell-based or functional assay

Sequence of human pituitary adenylate cyclase-activating polypeptide type I receptor (human) (P41586 21-468): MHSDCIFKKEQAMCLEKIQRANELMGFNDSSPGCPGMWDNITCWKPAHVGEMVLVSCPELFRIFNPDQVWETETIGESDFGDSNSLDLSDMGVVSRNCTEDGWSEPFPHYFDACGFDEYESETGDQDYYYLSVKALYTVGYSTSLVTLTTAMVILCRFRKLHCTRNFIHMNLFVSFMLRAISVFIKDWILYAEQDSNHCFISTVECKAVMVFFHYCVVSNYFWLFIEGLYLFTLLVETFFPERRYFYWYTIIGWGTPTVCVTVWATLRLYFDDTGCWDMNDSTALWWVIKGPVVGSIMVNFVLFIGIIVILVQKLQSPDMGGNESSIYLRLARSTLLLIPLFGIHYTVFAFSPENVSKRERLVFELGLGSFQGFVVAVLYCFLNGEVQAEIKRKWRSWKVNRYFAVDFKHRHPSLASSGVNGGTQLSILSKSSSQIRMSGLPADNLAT

PAC1 EC50 (agonist activity): 2.3 nM
Binder: HSDAVFTDNYTRLRKQMAVKKYLNSILN (ligand, UniProt P01282 125-152, looked up) [VIP]
